A protein production outcome set (Wang et al. 2014)

Test: label from the status in PepcDB records
In the case of “MCGIVGANSTRNVTNILIEGLKKLEYRGYDSAGLAIIDDKNNIDICKEVGKVIELEKSVHNLANFKGDIGIAHTRWATHGKPSKNNSHPHASESFCIVHNGVIENFAELKKVLINDGYKFKSDTDTEVIAHLLQKEWRDNFSIVDNIKYIMAMLKGAYAVAIISQKFSDKIVAVRSGSPLVIGVGIDENFISSDALSLLPVTNKFSYLDEGDIAIISKDNVEVFDNNGAAKNLEVEEYNYSSSSASKDGYKHYMLKEIYEQPEAVSNTILASLADGEISLDSFDKRAKELFEKTKHICIVACGTSYNAGMTAKYWIEKYAKVPCSVEIASEIRYRDNVVVDGSLFVSISQSGETADTLESLRKSKKQNYVGSMCICNVPNSSLVRESDIAFMTKAGVEIGVASTKAFTTQLVALAIFTLVIAKLKNSLTDQQIAKYTEELKNIRALVMGALKLDTEIDQISEYFSDKEHTIFLGRGLYYPIAIEGALKLKEISYIHAEAYPSGELKHGPLALVDKNMPIVAVVPNDELLDKTLSNLQEVHARGGKLILFVDKAVKERVNFDNSIVLELDAGHDFSAPVVFTIPLQLLSYHVAIIKGTDVDQPRNLAKSVTVE”, the protein production is reported as “not failed”.
With “MCGVELDSLISQVKDLLPDLGEGFILACLEYYHYDPEQVINNILEERLAPTLSQLDRNLDREMN” the protein production was “not failed”.
In the case of “MCIGFCIDRLDKGFLYTCHSTICRLVAQNMKKSLIHIGDGLGLSLLIEPTGSKSWRFRYRFGGKPKMISFGAYPLVSLAEARKKRDEARKQVLDGINPSEHRKAQKLNLMSESENTFETIAREWHTMKSVCWSVGYASDIMEAFRNDIFPYVGKRSIAEVKPLELLNVMRKMEKRGALEKMKKVRQRCSEVFRYAIATGRAEYNPAADLSSALEVHQSHHFPFLKADEIPDFLRALEGYTGSKLVRIATKLLLITGVRTIELRAALWSEFDLGNAIWEIPEERMKKRRAHLVPLSTQALDLLNELKIMTGNYRYVFPGRNNPNKPMSEASINQVIKRIGFGGEVTGHGFRHMLSTILHEEGFDSSFIEIQLAHVDRNSIRGTYNHAQYLEKRRHMMQYYSDYVIGKDF”, the protein production is reported as “failed”.
With “MCILGTTAKSLRLASVYGLSLFILFIVPLYLWQSTAAKMIAEVDWLDVATEGALFVLGMCWLMVIVSVRPSGRVTNLLIAGLSSYCLGCYLDLLDEIFIVKTLPIYNWFEKMPTPVGLLVLTGGLWLWRDEQTVVNRQLQTREQFHREHQLTDSLTLLNDAKAFEHHLVKQLSQNQSVGLLMLDVDYFHRYNKNQGVEEGDKLLSQLALWLSSTLRNQDLVCRYAGDRFVILLRGAIPSFVSVMAEQLQHGIKAFDCSATVVWTLPSPKMLPLQNSTCTAKEEAIALLQVLNQKMSQQKELRVSEAIAPSPFNTLDKSAASELN” the protein production was “failed”.
In the case of “MCKHILGKGYVDGVIEADEVFFTESFKGTKPSNMPRRSRKIGKQVKKSGISKEQVCITTAIDRQGNLIMELACKGRITSKELEKLYDGHISNESILCTDSRKSYIQFANDLSLEHKRIKRGKHKEGLYHIQHINVLHSNLRKWMNRFNGAATKYISNYIKWFKWLQIFDTHKEIIKAKNFIVQSNVAHAYIKVKDLKYREPICV”, the protein production is reported as “failed”.
In the case of “MCLCQLSRRKKRPDDSDTQSAPGAVQGTGADYSGAVTASAASTVTHPTVTRHVTASGARIYTIGIRAFEHLGVNVFLVVVGDPQQPSYTALIDAGSSFDFSQQGLLDGLKRVREEYGEAWSWETLSRLVITHPHPDHVGGLPFVRTLTAAPVAAHALAAAVIEEPGRRAEAFKLGADAMLARLGVPEGEYAARLRRRAGNLMSPSGVKVETALQDGDTLDGLFTVLHTPGHDGAQICLRLDEVLLSADHLLPHNSPPLMPGWMLPGSGLGPYLAALDHIETLEGVDLALGSHDEPMPDWRGRVDFLRRRYDDKLRGVLGAASEPQTIYALTCAVNPRLRAAQALLLLDQTAALVEELVVRGELHETREQAADGERWTYQRA”, the protein production is reported as “failed”.
In the case of “MCLDACLTPDLADRDPVGRACDRAYVIDRPVFRSAMGNCRPSHFRGNGTHAAMNGESCAQRGKRTHKMQESEFFQLSGTTAVLLLVAFYGATFLMSLMIGQKKENVDGYMVSNSSVGFGLSAASMIATWIWAASFYASATSGFKYGLSGPIHYGFWGALMILFIYPFGKRFRQLAPKAHTLAEVIHARHGASSQMIMAVSNIVGSCISLMVNFTAAGALVSVLSPLSFIQGVLIAGLGVLSYTLWSGFRASVMTDFAQLVAMILAAVIIIPLIFFNAGGPDMLQANMWRLSSEQADFFSTTAILEQGAPYFVAVLAYAIGNQTIAQRLFAVREDLIKPTFLTATIGYGAVVIGLGMLGLLALFVGLEPVNGNMNNIIPQMASTYLPPVGIALFFILVVGSLSSTADSDLAALSAIVMTDIYAKNLAGGRPDPRRMLWWGRATMIVATMVGVIFASLRLDILVMLVFVGALWGAIVFPVIASFYWDRVSNSAFFWSVISAVVLFTIVRFELVPIEGAVAVFYEICAAIGGGVVIGLMSFAFFGRVTALTLGTLATLFLLPCFVGTLREYIVLLGSLTAYGVSTVVCVALSLRNQERFDFSLLAERVTSFHYEKARMMGAKPAAPAAQPQPARG”, the protein production is reported as “failed”.
For “MCLSIPSQVVAVDNERQSVTVDTLGVRRDVSSHLMTEPLAIGDYVLIHIGFVMNKIDRNDALQSLELYQEIVSKLENETTH”, the protein production was “not failed”.
For “MCRSIRLTAMAAFLVIMGGAACSGKPVLPDLTLEGGDRSYSELITAQQHSFSIHTPSDAPLENSSIRIEVNEGESLTPRLRSSGSVDCSSLASVVAGVVAPGMTAEEKALALWRFVMDSCYHGRWGTSLDGLEHLNVYGYGYCGTYAAVLESLWWTAGLTARHVNIGNHAATEVYYNNDWHYIDADTRTYFLLKDNRTIASLDELNDNVELWTMLRRGSSRKAGKKYYYMTMHPNGHGRSPVYTNDFTMAKGDVLTLDWQSRGKWCLNRGQEGGKEPAGEPPFYGNGLFTFHRDFKDRSQSRSGLVSSTNIDWQDAAAGYLHPQHAKQEASLVYRVKTPYFIPETTLSGSFFRKGTGDSAAIDISTDNGKRWVSLWRADATGTVKASVVTAQTQQVTTDVPWKYSYLMRLRMRAGKSPRDVGAYHLDSASVLAYNPRCLPALRPGDNRITFSDGSQARRTVRVTYNWHDDLPITLSKETPFEGEEITVSARVTNRGAAEAHNVPVAVYLGNPAQGGVEIGRDTISRIPVGGTGLARVQWKATRKLAGRAANPGVPVYAVVDPDNRVAESDKANNVFSRIVKVLNPPDVRIPSESFIRFERAKDHSQSLAVVASVRNFSNSADYGLFLDDHGTGEAVEVTVYDGNPAKGGKVIGRETISRLLPLEHRNVSVKWDIAQLKGVHTVYVQVHPPANLTRAPGKRAPAAMAVPVDLDAYRSCKGI”, the protein production was “failed”.
For “MCRVGLRAMVQERPVRVERRLSAILAADVAGYSRLMHNDEEATHAKLSALLTEAVQPAIAEHGGHIVKNTGDGFLAEFPSAVEAVRAAMQFQTSIHELTIGDVEDRRIAFRVGINIGDVIVEPHDIFGDGVNIAARLEGVAEPGGICISSSAYDQVQGKVGVEFGDLGEQNLKNIARPVRVYRMRPCNAATRPQASLLHRDTPQIGWFPNMFGGFPIRLWPALRARRARMALVIALLFVLSGGVAYWYMHQGEPQPLNHRLSIVVLPFTNLSNASEQEYFAEGITDDLSADLSRIEDSFVIAPSTARAYKNVDPKRVGRELGVRYILDGSLRRTDSLVRINARLIDARTGAEIWSERVDGDWSKSMQLQDIITGRLARRLDLELTNQESRDAEVMRPNNPDAVDLTMRGWAVLNQPYSREQLSQSRALFERALQIDPGFPKALVGLAETLAMEVNYRWTDAPADQLRRAESAVGQVLSKFPSDAMAHFVRGEIQRASGRNVEAAVGEYEAAIAINPSLAPAHGALGAAKIRVGRSAEAFAPLQMAIQLSPRDPLLSTWYFYIGHAHSHLGQYEGAIDWCGRSIAVQPLWIAYADLAAAHALTGHEREAYAAVAELRRLRPSYTVTEWLQDGKGWSDNAVFLAEFQRIADGLRKAGLPE”, the protein production was “failed”.
In the case of “MCSFFKKKLCIFFFILGNVVGWSSCVWGHLGSQYTIIGQSVISHSIDEIIQKQQQIIKILEQEIKNLQKDFANESANEYALAKVRLRARDINKRAIEAAFVLRNPLNDINVLLDQLKELQDEPKNLKERSHLIKKKAQINNMVLQFEEIFLATNKIVELSLSQSRELFKRTFKNRLEFSIPMLKYSVEKMKEASSDFLFLFSSWCKFVFHFKFLQLFLSFLVPLFVALGLSYFSRKVLAHVNCYFTKGNEEISYLQRLLVAFISILLPLLVCVVCVYLVFFLFHSFGMELGKLTTIFYTVGHQIILVFLINRLALVLLSLNMVHVRLFNITPFVAHQLVILLTFLGGILAFDAVLDSIYQVVSASLSLTIAKSFIAVFLFAILLFIISFVPLRFRRKSSQNEERETHFLPLYIRIPFIVLGLLLIVMDSLGYVGLAHFIMQQIVIGGAFLVLMYLGIKSAQVIGTKGQFMKTSVGHALMQWFHLEEKTMNKLGIVISVVLNLIVVILCAMPIAVQFGFSYSDLRRVLLQVMTGFQIGNISVSLISIVIGIIAFFACWFLNRRFICWLDGMVLVHGEFDSGVRNSIKTVISYAGVVVSALIGLSMAGLDLKNFALIAGGLSLGIGFGLQNIVQNFVSGLIILIGRPFKLGDYVEAGSVGGIVKRISVRATELETFQRKTIIIPNSSLINNNVSNWTRGSKMGRVDIPIVVSPNVAPERVVEILLEIASTTEGVLKNPAPQVSFTAFDSKKFSFSLAVYVPNITSSFKVTNALHFVLYKRFVQEGILEC”, the protein production is reported as “failed”.
In the case of “MCTEFWNSFSNLFTGGRSTNRKIILVLLIMVLSSGVCSADNYVGGIPLTSAHSGTVSGGVYCDSYYGMGDQEAKASNTIEKTFTVPDNANVEWAMLLTNVYCGHMQNNYQGKAKVDFNGKNLGTETLNVPYTYSYNGGNGHVQVNDHVNRVTSDYMMYYDVTGLVKAGKNTAVVKTDPLDSSFDGRIRLVTLVVAYNDGSKKTIWYQVNRGHDADSYYSDDEMNENYIGSTAFQAALPEGSSLTDSKLTLVYQASSDGAYAFNGNALSSGTPQGTFSGSNTWDVKDSLKSSGTNTLTYDRTASFYKSVLGILTAEYTTSSSGDSTDDTPADNTTDNGSAGDTTDDISSDNTTNDTSSDNTTSDVPAGNTTNDTPADNTTDAKFSADLGVQAIKVSHNSAAKAWKNLVNTVNVTVINNGPEKAGSFALELYSEGSLLESKPINGLANGATEAVEFVWKPEDAKNYTLRAVVVPGSTINDANATNNELSKTQEVMHNGYIGDKPLETYLHGTVKGNIIYDYGNSSYVKVSSGDVYTAGHSLSLPEGAIVKYARLYNFWTWSATGSSGVIPSMSLDFAGSSLTPEAEYADQKGWGQYDYPTGTWAYNVTGLVSGSGNYITTVKNTNSDAENSFCIDGIALLVVYEDASGKETQYWINEGCDAVSTMSSSGGLTPDEATVKIAFAGDSIDLGNVDNARLWTTVQSGGHEGIALKFNEMSISGVYDSTPSSNLDIDEARDVTSYLLSQNNEAQIIAPSVTDNSGDYMIPSSAILAVSYKSETTDDTNITDDTNVTDDTNVTDGTNVTDDTNVTDGTNVTNDTNVTNDTNVTNDTNVTNDTNVTNDTNVTNDTNVTDDTNVTDGTNVTDGTNVTIDTNVTIDTNVTIDTNVTDNTNVTDDTNMKDDTNVTLKVNIIPVISLTVSPDSLDFGTVSPGTPSESLPLALKNNGGISIKVTAEVHDQENGPFATGLLLDQNIWSNYSKVLAAESAETSQAQLDLPLNYSSTGQFQGTLSLWAEAA”, the protein production is reported as “failed”.
With “MCTSLTLETKNGQHLFARTMDFTLDMNQEVIIIPRHYQWNNITGEIINTKHATVGMGINHQGRIIMADGVNEAGMTCATLYFPGFATYSQSIDDNTTNLAPFDFVTWSLTQFNSVKELKKSVDSITFLDIPLPDLGLTPPLHWILADKWGDCIVLDPTSEGLKLYDNPLGVMTNSPEFNWHLQNLRQYIGLKSQPFAPTEWSNLPLSAFGQGSGSMGLPGDFTPPSRFVRAAYGKQNIQGIDSEEEGVSALFHILSNCEVPKGGVITEEGALDNTIYTSVMCMESGTYYYHTYDCRQIIAVHLFHENLDTDEIKAYPFQRKQKIFYEN” the protein production was “failed”.
